Measurements taken from patent US20250236644A1 (University of Washington, published 2025).
One block for each binder: values may come before it.

Columns and labels:
[1] = biological target: T1, TAMRA-labeled effector peptide js007B (5(6)-TAMRA label coupled on resin after synthesis); experiment: fluorescence polarization kinetics; slope of kapp against hinge concentration
T1 construct: also called TAMRA-js007B
T1 peptide: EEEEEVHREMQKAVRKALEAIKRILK
Description: (§1) All FP measurements were performed at 25° C. in 96-well plates (Corning 3686) using a Synergy Neo2™ plate reader and a 530/590 nm filter cube. The buffer for all FP measurements was 20 mM Tris-HCl, 100 mM NaCl, 0.05% v/v TWEEN20 at pH 8. Titrations were carried out in 96-well format, with 4 replicates per plate and 24 data points per titration (23 steps of two-fold serial dilution of hinges in the presence of TAMRA-labeled peptide at a constant concentration between 0.1 nM and 1 nM) with a final sample volume of 80 μl per well. Titration plates were incubated overnight at room temperature before measuring to ensure complete equilibration. The polarization signal S (as calculated by the Neo2™ software) was fitted to the equation
(§2) For FP kinetics experiments a 2× peptide solution and 8 different 2× hinge solutions at different concentrations were prepared separately. 40 μl of each hinge solution were mixed with 40 μl peptide solution using a multichannel pipet and the measurement was started immediately after mixing. Polarization signals S at each concentration were fitted individually to the equation

[2] = biological target: T1, TAMRA-labeled effector peptide js007B; experiment: fluorescence polarization titration; TAMRA-peptide constant, hinge varied
Text: (§3) We used our hinge design approach to generate hinge-peptide pairs that span a wide structural space (FIGS. 1D, 2A, 6, 7). We experimentally tested multiple rounds of designs, using both DHRs (21) and helical junctions (22) as input scaffolds, and improving individual steps of the design pipeline between iterations. Designs for which hinge and GFP-fused peptide were soluble and interacted as judged by size exclusion chromatography (SEC, FIGS. 7-8) were selected for further characterization by fluorescence polarization (FP). […] To circumvent the bottleneck of finding soluble peptide sequences, we also sought to design hinges that bind to a given target peptide. Starting from design cs201, we used a modified version of our design pipeline to redesign the hinge to bind peptides cs074B or cs221B, respectively, which have similar hydrophobic fingerprints as the original target peptide cs201B.
as §1

effector protein 3hb32 = biological target: T2, effector protein 3hb32; experiment: SEC binding experiment
T2 chain: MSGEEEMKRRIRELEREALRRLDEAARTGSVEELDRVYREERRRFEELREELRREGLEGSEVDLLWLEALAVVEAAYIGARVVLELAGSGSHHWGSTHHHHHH

[3] = biological target: T3, TAMRA-labeled effector peptide cs269B (5(6)-TAMRA label coupled on resin after synthesis); experiment: fluorescence polarization titration; TAMRA-peptide constant, hinge varied
T3 construct: also called TAMRA-cs269B
T3 peptide: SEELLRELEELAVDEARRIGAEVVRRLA
Text: as §3, §1

[4] = biological target: T3, TAMRA-labeled effector peptide cs269B; experiment: fluorescence polarization kinetics; 5 nM TAMRA-peptide, slope of kapp against hinge concentration
[5] = biological target: T4, TAMRA-labeled effector peptide cs221B (5(6)-TAMRA label coupled on resin after synthesis); experiment: FP titration, 1 nM TAMRA-labeled peptide, reducing conditions
T4 construct: also called TAMRA-cs221B
T4 peptide: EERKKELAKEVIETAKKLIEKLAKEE
Text: To test the effect of the conformational pre-equilibrium on effector binding, we introduced disulfide “staples” that lock the hinge in one conformation. Using FP we analyzed peptide binding to stapled versions of hinge cs221 (FIG. 5A,B). […] Using the pre-equilibrium model described above, the observed association rates provide an estimate of the fraction of hinge that is in state Y in absence of the peptide: a 200-fold higher observed on rate for the locked Y variant indicates a 200-fold higher fraction of hinge in state Y compared to the original hinge. Assuming that the locked Y variant is 100% in state Y and assuming that the microscopic rate constant k₂ is identical for the locked Y hinge and state Y of the original hinge, this would indicate that the original hinge is 99.5% in state X and 0.5% in state Y at equilibrium.
All FP measurements were performed at 25° C. in 96-well plates (Corning 3686) using a Synergy Neo2™ plate reader and a 530/590 nm filter cube. The buffer for all FP measurements was 20 mM Tris-HCl, 100 mM NaCl, 0.05% v/v TWEEN20 at pH 8. […] The polarization signal S (as calculated by the Neo2™ software) was fitted to the equation

effector protein 3hb03 = biological target: T5, effector protein 3hb03; experiment: SEC binding experiment
T5 construct: Three-helix bundle built around peptide cs074B
T5 chain: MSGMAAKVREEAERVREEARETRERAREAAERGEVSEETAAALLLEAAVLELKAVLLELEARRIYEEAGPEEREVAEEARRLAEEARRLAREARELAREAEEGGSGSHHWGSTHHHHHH

effector protein 3hb12 = biological target: T6, effector protein 3hb12; experiment: SEC binding experiment
T6 construct: Three-helix bundle built around peptide cs074B
T6 chain: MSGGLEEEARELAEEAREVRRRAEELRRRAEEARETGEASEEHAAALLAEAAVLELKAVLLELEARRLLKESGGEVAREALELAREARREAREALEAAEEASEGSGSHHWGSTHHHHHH

effector protein 3hb04 = biological target: T7, effector protein 3hb04; experiment: SEC binding experiment
T7 construct: Three-helix bundle built around peptide cs074B
T7 chain: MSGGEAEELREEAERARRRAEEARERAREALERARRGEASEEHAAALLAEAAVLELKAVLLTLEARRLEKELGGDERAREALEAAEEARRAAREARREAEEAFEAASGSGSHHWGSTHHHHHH

effector protein 3hb11 = biological target: T8, effector protein 3hb11; experiment: SEC binding experiment
T8 construct: Three-helix bundle built around peptide cs074B
T8 chain: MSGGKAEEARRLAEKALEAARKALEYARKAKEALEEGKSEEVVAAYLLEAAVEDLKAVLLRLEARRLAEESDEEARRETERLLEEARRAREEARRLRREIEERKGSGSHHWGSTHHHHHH

effector protein 3hb08 = biological target: T9, effector protein 3hb08; experiment: SEC binding experiment
T9 construct: Three-helix bundle built around peptide cs074B
T9 chain: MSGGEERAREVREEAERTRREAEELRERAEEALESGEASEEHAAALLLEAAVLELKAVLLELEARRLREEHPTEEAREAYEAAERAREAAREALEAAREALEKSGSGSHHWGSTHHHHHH

[6] = biological target: T10, TAMRA-labeled effector peptide cs074B (5(6)-TAMRA label coupled on resin after synthesis); experiment: fluorescence polarization kinetics; slope of kapp against hinge concentration
T10 construct: Chemically synthesized; also called TAMRA-cs074B
T10 peptide: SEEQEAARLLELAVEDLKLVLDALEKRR
Description: as §1, §2

[7] = biological target: T10, TAMRA-labeled effector peptide cs074B; experiment: fluorescence polarization titration; TAMRA-peptide constant, hinge varied
Text: as §3, §1

[8] = biological target: T10, TAMRA-labeled effector peptide cs074B; experiment: fluorescence polarization titration; TAMRA-peptide constant, unlabeled hinge varied
Description: as §1

effector protein 3hb24 = biological target: T11, effector protein 3hb24; experiment: SEC binding experiment
T11 chain: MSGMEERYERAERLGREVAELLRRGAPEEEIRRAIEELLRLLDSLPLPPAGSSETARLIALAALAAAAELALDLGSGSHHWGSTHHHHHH

[9] = biological target: T12, TAMRA-labeled effector peptide cs230B (5(6)-TAMRA label coupled on resin after synthesis); experiment: fluorescence polarization titration; TAMRA-peptide constant, hinge varied
T12 construct: also called TAMRA-cs230B
T12 peptide: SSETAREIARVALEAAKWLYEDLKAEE
Text: as §3, §1

kon [1]: 78000 M⁻¹ s⁻¹ | Kd [2]: 5.7 nM
B1: hinge js007 (designed binder)
chain: MSGSEEVNERVKQLAEKAKEATDKEEVIEIVKELAELAKQSTDPNLVAEVVRALTEVAKTSTDTELIQEIVKVLLELARRLTDPQLLLEVLKSIAELLKELAEKTGNETAKLAALVAQIAAEVVEMALRAEKTHPGSEIVKLAVELVQKVAEIVLIAAQLMLDKPNSDEVRKVLKEVEKVAREALKALREAKRHPDSQKARDEIKEASQKAEEVKERIERAQEGSGSHHWGSTHHHHHH

binding result (effector protein 3hb03): binds | binding result (effector protein 3hb12): binds | binding result (effector protein 3hb04): binds | binding result (effector protein 3hb11): binds | binding result (effector protein 3hb08): binds | kon [6]: 64000 M⁻¹ s⁻¹ | Kd [7]: 0.5 nM
B4: hinge cs074 (designed binder)
chain: MSGDEEVQEAVERAEELREEAEELIKKARKTGDPELLRKALEALKEAVRAVKEAIKRNPDNEEAVKTAVRLARELLKVAEELKERAEKTGDPRLLLLAAEAIAWAIEAVFLAAKASENTEGALEAARAAVKLAEVAKRIAKLLQRDAKKEGDPELLKLALRALELAVRAVELAIKENPDNEEAVETAKRLAEELRKVAELLEERAKETGDPELQELAKRAKEVADRARELAKKSNPNNGSGSHHWGSTHHHHHH
notes: De novo designed two-state hinge; the entry includes the C-terminal SNAC/His tag

binding result (effector protein 3hb24): binds | Kd [9]: 2800 nM
B6: hinge cs230 (designed binder)
chain: MSGTKEEKERIERIEKEVRSPDPENILEAVRKALELFRENPSEEAKELLKRAIEAALRSEDERAILEALRAALEAYRQGAGDREGLLEAIRVAIRRAAESEDERAILEAVRAARILLEAERTEEAKELLRVAIERAKKSPDPEAQREAKRAEEELRKEDGSGSHHWGSTHHHHHH

Continued, binder first:

B2: hinge cs269 (designed binder)
chain: MSGDEERVRELAERASREAERAVRSGSEESLEEALRNVEELIRKSDSEEARVRVAEAAVRAAAEAAARSGTVEAAAVAVIFTARVLQIVSSSEEAVVRVLAAAAAAAARVAVELGTEEALETALRFVELLVRLADSDEARQRVLRSASESARRSAEESGSERAREVAERFRERIERNQGSGSHHWGSTHHHHHH
binding result (effector protein 3hb32): binds | Kd [3]: 83 nM | kon [4]: 2500 M⁻¹ s⁻¹

B3: variant cs221_lockedX, reducing conditions (DTT) (designed binder)
chain: MSGEMKEEIRRLAEELRERTKDEEVRELAREAARLAEESDDEEVKEVVKKALEAALKSKDEEVIRLLLLAAVCAAAAARSGSPEEKLEIAKKALELAMKSKDEEVIRLALLAAVLACRSDDEEVLKKVKEALEKAMESKDVEEIRERLREAVEVARAGSGSHHWGSTHHHHHH
notes: also called locked X with DTT
binding result [5]: binds

B5: FRET(extension) cs074F, unlabeled (designed binder)
chain: DEEVQEAVERAEELREEAEELIKKARKTGDPELLRKALEALECAVRAVEEAIKRNPDNDEAVETAVRLARELKKVAEELQERAKKTGDPELLKLALRALKVAVRAVKLAIKSNPDNEEAVKTAVRLARELLKVAEELKERAEKTGDPRLLLLAAEAIAWAIEAVFLAAKASENTEGALEAARAAVKLAEVAKRIAKLLQRDAKKEGDPELLKLALRALELAVRAVELAIKENPDNDEAVETAVRLARELKKVAEELQERAKKTGDPELLKLALRALEVAVRAVELAIKSNPDNEEAVETAKRLAEELRKVAELLEERACETGDPELQELAKRAKEVADRARELAKKSNPNNGSHHHHHH
notes: also called unlabeled extended hinge cs074F
Kd [8]: < 2 nM | kon [6]: 100000 M⁻¹ s⁻¹
